Data: paper PMC5473807, “Distribution and kinetics of the Kv1.3-blocking peptide HsTX1[R14A] in experimental rats” (Scientific Reports, 2017)
Like-named read-outs stand apart in the source and are kept apart here.

Assay: In vivo biodistribution by organ and tissue extraction
Set-up: species or system male Wistar rats
Settings: male, Wistar, total radioactivity, rat; for SUV at 48 h / tissue uptake dose at 48 h: 2880 min p.i.; for SUV at 1 h / tissue uptake dose at 1 h: 60 min p.i.; for tissue uptake dose at 5 min / SUV at 5 min: 5 min p.i.; for dose excreted at 24 h: kidney and urine, read-out: renal elimination
Protocol: The present study includes data obtained from a total of 50 animals. Four animals (body weight 227 ± 10 g) for each time point were injected intravenously into a tail vein or subcutaneously with approximately 0.3 MBq ([…]) [^64Cu]Cu-NOTA-HsTX1[R14A] conjugate in 0.5 mL electrolyte solution E-153 (Serumwerk Bernburg, Germany). Animals were euthanised at 5, 60, 240, 1440 and 2880 min post-injection. Blood and the major organs were collected, weighed, and counted in a cross-calibrated γ-counter (Isomed 1000, Isomed GmbH, Dresden) and Wallac WIZARD Automatic Gamma Counter (PerkinElmer, Germany). The radioactivity of the tissue samples was decay-corrected and calibrated by comparing the counts in tissue with the counts in aliquots of the injected radiotracer that had been measured in the γ-counter at the same time. The activity in the selected organs was expressed as percent-injected dose per organ (% ID) and the activity concentration in tissues and organs as standardised uptake value (SUV). Values are quoted as mean ± standard error of mean (SEM) for each group of four animals.

[1] = femur, sc, 0.3 MBq, s.c., mean ± SD, n=4, read-out: Femur SUV
[2] = femur, sc, 0.3 MBq, s.c., mean ± SD, n=4, read-out: Femur activity amount
[3] = heart, iv, 0.3 MBq, i.v., mean ± SD, n=4, read-out: Heart activity amount
[4] = heart, iv, i.v., mean ± SD, n=4, read-out: Heart SUV
[5] = heart, sc, 0.3 MBq, s.c., mean ± SD, n=4, read-out: Heart activity amount
[6] = heart, sc, s.c., mean ± SD, n=4, read-out: Heart SUV
[7] = intestine, iv, 0.3 MBq, i.v., mean ± SD, n=4, read-out: Intestine activity amount
[8] = intestine, sc, 0.3 MBq, s.c., mean ± SD, n=4, read-out: Intestine activity amount
[9] = kidneys, iv, 0.3 MBq, i.v., mean ± SD, n=4, read-out: Kidneys SUV
[10] = kidneys, iv, 0.3 MBq, i.v., mean ± SD, n=4, read-out: Kidneys activity amount
[11] = kidneys, sc, 0.3 MBq, s.c., mean ± SD, n=4, read-out: Kidneys SUV
[12] = kidneys, sc, 0.3 MBq, s.c., mean ± SD, n=4, read-out: Kidneys activity amount
[13] = liver, iv, 0.3 MBq, i.v., mean ± SD, n=4, read-out: Liver SUV
[14] = liver, iv, 0.3 MBq, i.v., mean ± SD, n=4, read-out: Liver activity amount
[15] = liver, sc, 0.3 MBq, s.c., mean ± SD, n=4, read-out: Liver SUV

Which results are given for CSCC[C@@H]1NC(=O)[C@@H]2CSSC[C@H](NC(=O)[C@H](CO)NC(=O)[C@H](C)NC(=O)COCCOCCNC(=O)CN3CCN(CC(=O)O)CCN(CC(=O)O)CC3)C(=O)N[C@@H](CCCNC(=N)N)C(=O)N[C@@H]([C@@H](C)O)C(=O)N3CCC[C@H]3C(=O)N[C@@H](CCCCN)C(=O)N[C@@H](CC(=O)O)C(=O)N[C@H]3CSSC[C@H](NC(=O)[C@H](CCCCN)NC(=O)[C@H](CCCNC(=N)N)NC(=O)[C@H](CC(N)=O)NC1=O)C(=O)N[C@@H](CCCCN)C(=O)N[C@H]1CSSC[C@H](NC(=O)[C@@H]4CCCN4C(=O)[C@H](CC(=O)O)NC(=O)[C@H](C)NC3=O)C(=O)N[C@@H](C)C(=O)N[C@@H](CCCCN)C(=O)N[C@@H](CCC(=O)O)C(=O)N[C@@H]([C@@H](C)O)C(=O)NCC(=O)N[C@@H](CSSC[C@@H](C(N)=O)NC(=O)[C@H](CCCNC(=N)N)NC(=O)[C@H](CC(N)=O)NC1=O)C(=O)N1CCC[C@H]1C(=O)N[C@@H](Cc1ccc(O)cc1)C(=O)NCC(=O)N[C@@H](CCCCN)C(=O)N2 [[^64Cu]Cu-NOTA-HsTX1[R14A], metal not drawn]?
SUV at 48 h (femur, iv, 0.3 MBq, i.v., mean ± SD, n=4, read-out: Femur SUV): 0.39 ± 0.02 SUV; tissue uptake dose at 48 h (femur, iv, 0.3 MBq, i.v., mean ± SD, n=4, read-out: Femur activity amount): 0.23 ± 0.01 %ID; SUV at 1 h [1]: 1.25 ± 0.07 SUV; tissue uptake dose at 1 h [2]: 0.82 ± 0.04 %ID; SUV at 4 h (femur, sc, 0.3 MBq, s.c., 240 min p.i., mean ± SD, n=4, read-out: Femur SUV): 0.92 ± 0.08 SUV; tissue uptake dose at 4 h (femur, sc, 0.3 MBq, s.c., 240 min p.i., mean ± SD, n=4, read-out: Femur activity amount): 0.64 ± 0.02 %ID; SUV at 24 h (femur, sc, 0.3 MBq, s.c., 1440 min p.i., mean ± SD, n=4, read-out: Femur SUV): 0.47 ± 0.02 SUV; tissue uptake dose at 24 h (femur, sc, 0.3 MBq, s.c., 1440 min p.i., mean ± SD, n=4, read-out: Femur activity amount): 0.34 ± 0.01 %ID; SUV at 48 h [1]: 0.34 ± 0.02 SUV; tissue uptake dose at 48 h [2]: 0.19 ± 0.02 %ID; tissue uptake dose at 5 min [3]: 0.33 ± 0.04 %ID; tissue uptake dose at 1 h (heart, iv, 0.3 MBq, i.v., mean ± SD, n=8, read-out: Heart activity amount): 0.21 ± 0.06 %ID; tissue uptake dose at 4 h (heart, iv, 0.3 MBq, i.v., 240 min p.i., mean ± SD, n=4, read-out: Heart activity amount): 0.19 ± 0.03 %ID; tissue uptake dose at 24 h (heart, iv, 0.3 MBq, i.v., 1440 min p.i., mean ± SD, n=8, read-out: Heart activity amount): 0.23 ± 0.02 %ID; tissue uptake dose at 48 h [3]: 0.27 ± 0.04 %ID; SUV at 5 min [4]: 1.04 ± 0.14 SUV; SUV at 1 h (heart, iv, i.v., mean ± SD, n=8, read-out: Heart SUV): 0.53 ± 0.08 SUV; SUV at 4 h (heart, iv, i.v., 240 min p.i., mean ± SD, n=4, read-out: Heart SUV): 0.4 ± 0.07 SUV; SUV at 24 h (heart, iv, i.v., 1440 min p.i., mean ± SD, n=8, read-out: Heart SUV): 0.62 ± 0.07 SUV; SUV at 48 h [4]: 0.64 ± 0.06 SUV; tissue uptake dose at 1 h [5]: 0.32 ± 0.02 %ID; tissue uptake dose at 4 h (heart, sc, 0.3 MBq, s.c., 240 min p.i., mean ± SD, n=4, read-out: Heart activity amount): 0.18 ± 0.03 %ID; tissue uptake dose at 24 h (heart, sc, 0.3 MBq, s.c., 1440 min p.i., mean ± SD, n=4, read-out: Heart activity amount): 0.23 ± 0.01 %ID; tissue uptake dose at 48 h [5]: 0.22 ± 0.01 %ID; SUV at 1 h [6]: 0.7 ± 0.03 SUV; SUV at 4 h (heart, sc, s.c., 240 min p.i., mean ± SD, n=4, read-out: Heart SUV): 0.41 ± 0.06 SUV; SUV at 24 h (heart, sc, s.c., 1440 min p.i., mean ± SD, n=4, read-out: Heart SUV): 0.53 ± 0.02 SUV; SUV at 48 h [6]: 0.57 ± 0.04 SUV; tissue uptake dose at 5 min [7]: 3.59 ± 2.4 %ID; tissue uptake dose at 1 h (intestine, iv, 0.3 MBq, i.v., mean ± SD, n=8, read-out: Intestine activity amount): 5.3 ± 2.31 %ID; tissue uptake dose at 4 h (intestine, iv, 0.3 MBq, i.v., 240 min p.i., mean ± SD, n=4, read-out: Intestine activity amount): 4.61 ± 1.84 %ID; tissue uptake dose at 24 h (intestine, iv, 0.3 MBq, i.v., 1440 min p.i., mean ± SD, n=8, read-out: Intestine activity amount): 16.5 ± 2.32 %ID; tissue uptake dose at 48 h [7]: 8.27 ± 1.01 %ID; tissue uptake dose at 1 h [8]: 7.85 ± 3.82 %ID; tissue uptake dose at 4 h (intestine, sc, 0.3 MBq, s.c., 240 min p.i., mean ± SD, n=4, read-out: Intestine activity amount): 4.65 ± 1.73 %ID; tissue uptake dose at 24 h (intestine, sc, 0.3 MBq, s.c., 1440 min p.i., mean ± SD, n=4, read-out: Intestine activity amount): 19.3 ± 1.35 %ID; tissue uptake dose at 48 h [8]: 8.16 ± 1.02 %ID; dose excreted at 24 h (iv, 0.3 MBq, i.v., one day after injection): 48 ± 3%; dose excreted at 24 h (sc, 0.3 MBq, s.c., one day after injection): 51 ± 2%; SUV at 5 min [9]: 35.1 ± 6.82 SUV; tissue uptake dose at 5 min [10]: 23.9 ± 3.93 %ID; SUV at 1 h (kidneys, iv, 0.3 MBq, i.v., mean ± SD, n=8, read-out: Kidneys SUV): 78.4 ± 13.6 SUV; tissue uptake dose at 1 h (kidneys, iv, 0.3 MBq, i.v., mean ± SD, n=8, read-out: Kidneys activity amount): 61.6 ± 4.21 %ID; SUV at 4 h (kidneys, iv, 0.3 MBq, i.v., 240 min p.i., mean ± SD, n=4, read-out: Kidneys SUV): 68.4 ± 4.28 SUV; tissue uptake dose at 4 h (kidneys, iv, 0.3 MBq, i.v., 240 min p.i., mean ± SD, n=4, read-out: Kidneys activity amount): 63.1 ± 0.97 %ID; SUV at 24 h (kidneys, iv, 0.3 MBq, i.v., 1440 min p.i., mean ± SD, n=8, read-out: Kidneys SUV): 18 ± 5.32 SUV; tissue uptake dose at 24 h (kidneys, iv, 0.3 MBq, i.v., 1440 min p.i., mean ± SD, n=8, read-out: Kidneys activity amount): 14.2 ± 2.04 %ID; SUV at 48 h [9]: 6.37 ± 0.59 SUV; tissue uptake dose at 48 h [10]: 6.19 ± 0.49 %ID; SUV at 1 h [11]: 58.1 ± 5.55 SUV; tissue uptake dose at 1 h [12]: 53.3 ± 4.9 %ID; SUV at 4 h (kidneys, sc, 0.3 MBq, s.c., 240 min p.i., mean ± SD, n=4, read-out: Kidneys SUV): 70.2 ± 4.14 SUV; tissue uptake dose at 4 h (kidneys, sc, 0.3 MBq, s.c., 240 min p.i., mean ± SD, n=4, read-out: Kidneys activity amount): 62.5 ± 2.36 %ID; SUV at 24 h (kidneys, sc, 0.3 MBq, s.c., 1440 min p.i., mean ± SD, n=4, read-out: Kidneys SUV): 14.4 ± 1.32 SUV; tissue uptake dose at 24 h (kidneys, sc, 0.3 MBq, s.c., 1440 min p.i., mean ± SD, n=4, read-out: Kidneys activity amount): 13.6 ± 1.1 %ID; SUV at 48 h [11]: 5.98 ± 1.08 SUV; tissue uptake dose at 48 h [12]: 4.95 ± 0.49 %ID; tissue uptake dose at 4 h (liver and intestine, iv, 0.3 MBq, i.v., 4 h, read-out: activity in the liver and intestine): 12 ± 3 %ID; tissue uptake dose at 24 h (liver and intestine, iv, 0.3 MBq, i.v., one day after injection, read-out: hepatobiliary elimination, maximum): 31 ± 3 %ID; tissue uptake dose at 4 h (liver and intestine, sc, 0.3 MBq, s.c., 4 h, read-out: activity in the liver and intestine): 11.4 ± 4 %ID; tissue uptake dose at 24 h (liver and intestine, sc, 0.3 MBq, s.c., one day after injection, read-out: hepatobiliary elimination, maximum): 30 ± 3 %ID; SUV at 5 min [13]: 1.02 ± 0.53 SUV; tissue uptake dose at 5 min [14]: 4.6 ± 2.22 %ID; SUV at 1 h (liver, iv, 0.3 MBq, i.v., mean ± SD, n=8, read-out: Liver SUV): 1.24 ± 0.31 SUV; tissue uptake dose at 1 h (liver, iv, 0.3 MBq, i.v., mean ± SD, n=8, read-out: Liver activity amount): 5.43 ± 1.44 %ID; SUV at 4 h (liver, iv, 0.3 MBq, i.v., 240 min p.i., mean ± SD, n=4, read-out: Liver SUV): 1.78 ± 0.45 SUV; tissue uptake dose at 4 h (liver, iv, 0.3 MBq, i.v., 240 min p.i., mean ± SD, n=4, read-out: Liver activity amount): 7.01 ± 1.47 %ID; SUV at 24 h (liver, iv, 0.3 MBq, i.v., 1440 min p.i., mean ± SD, n=8, read-out: Liver SUV): 2.93 ± 0.78 SUV; tissue uptake dose at 24 h (liver, iv, 0.3 MBq, i.v., 1440 min p.i., mean ± SD, n=8, read-out: Liver activity amount): 14.8 ± 2.42 %ID; SUV at 48 h [13]: 1.45 ± 0.13 SUV; tissue uptake dose at 48 h [14]: 8.35 ± 0.95 %ID; SUV at 1 h [15]: 1.13 ± 0.23 SUV; tissue uptake dose at 1 h (liver, sc, 0.3 MBq, s.c., mean ± SD, n=4, read-out: Liver activity amount): 4.44 ± 0.74 %ID; SUV at 4 h (liver, sc, 0.3 MBq, s.c., 240 min p.i., mean ± SD, n=4, read-out: Liver SUV): 1.75 ± 0.63 SUV; tissue uptake dose at 4 h (liver, sc, 0.3 MBq, s.c., 240 min p.i., mean ± SD, n=4, read-out: Liver activity amount): 6.79 ± 2.27 %ID; SUV at 24 h (liver, sc, 0.3 MBq, s.c., 1440 min p.i., mean ± SD, n=4, read-out: Liver SUV): 2.23 ± 0.32 SUV; tissue uptake dose at 24 h (liver, sc, 0.3 MBq, s.c., 1440 min p.i., mean ± SD, n=4, read-out: Liver activity amount): 11.1 ± 1.82 %ID; SUV at 48 h [15]: 1.4 ± 0.08 SUV
